What all share (assay): SPR
A general note: Surface plasmon resonance follows binding to a sensor surface in real time, without labels.

One series concerns the target HuR (UniProt Q15717 1-326).
Series [1] deals with T1, beta-catenin FL (UniProt P35222 1-781).
Series [2] has as its target T1, beta-catenin FL. This is another data set of the same source.
Series [3] deals with T1, beta-catenin FL. The source holds these as a separate data set.

Read-outs that look alike come from different tables or passages of the source.

Sequence of HuR (Q15717 whole entry): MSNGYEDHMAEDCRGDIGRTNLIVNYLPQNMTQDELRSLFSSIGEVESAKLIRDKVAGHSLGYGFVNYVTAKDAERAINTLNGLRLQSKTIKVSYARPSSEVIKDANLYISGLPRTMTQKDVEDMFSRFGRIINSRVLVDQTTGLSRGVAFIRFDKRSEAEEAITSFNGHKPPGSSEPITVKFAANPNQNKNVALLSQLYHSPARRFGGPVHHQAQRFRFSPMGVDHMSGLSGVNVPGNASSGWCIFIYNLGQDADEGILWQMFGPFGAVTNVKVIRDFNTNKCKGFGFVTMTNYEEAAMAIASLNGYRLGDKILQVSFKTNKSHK
T1 sequence (P35222 whole entry): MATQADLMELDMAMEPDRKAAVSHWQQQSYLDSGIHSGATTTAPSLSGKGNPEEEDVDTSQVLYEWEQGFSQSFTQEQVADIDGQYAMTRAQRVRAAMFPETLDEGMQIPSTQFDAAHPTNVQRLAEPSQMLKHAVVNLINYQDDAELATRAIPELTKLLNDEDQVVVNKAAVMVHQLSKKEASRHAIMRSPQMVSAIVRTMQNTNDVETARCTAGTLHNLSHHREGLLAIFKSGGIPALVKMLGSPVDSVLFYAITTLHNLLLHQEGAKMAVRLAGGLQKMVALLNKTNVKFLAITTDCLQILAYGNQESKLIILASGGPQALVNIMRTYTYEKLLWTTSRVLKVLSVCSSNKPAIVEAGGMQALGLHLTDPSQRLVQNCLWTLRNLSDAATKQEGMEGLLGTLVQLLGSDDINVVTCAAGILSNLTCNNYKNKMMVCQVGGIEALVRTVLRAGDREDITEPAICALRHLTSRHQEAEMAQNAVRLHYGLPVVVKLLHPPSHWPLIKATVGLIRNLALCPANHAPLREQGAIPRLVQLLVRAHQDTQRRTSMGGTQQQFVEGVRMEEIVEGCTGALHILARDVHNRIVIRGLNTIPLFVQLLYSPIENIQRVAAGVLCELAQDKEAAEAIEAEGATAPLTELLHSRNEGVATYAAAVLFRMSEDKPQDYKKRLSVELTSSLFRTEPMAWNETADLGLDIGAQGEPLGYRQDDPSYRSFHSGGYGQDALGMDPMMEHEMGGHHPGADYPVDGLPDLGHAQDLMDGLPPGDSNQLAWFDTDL

B1: COX-2 3'-UTR U-1 (ssRNA)
RNA: AAGUCUAAUGAUCAUAUUUAUUUAUUUAUAUGAACCAUGUCUAUUAAUUUAAUUAUUUAAUAAUAUUUAUAUUAAACUCCUUAUGUUACUUAACAUCUUCUGUAACAGAAGUCAGUACUCCUGUUGCGGAGAAAGGAGUCAUACUUGUGA
In the series with HuR, B1 yielded a Kd of 33.4 nM.

B2: COX-2 3'-UTR U-2 (ssRNA)
RNA: AAGUCUAAUGAUCAUAUUUAUUUAUUUAUAUGAACCAUGUCUAUUAAUUUAAUUAUUUAAUAAUAUUUAUAUUAAACUCCUUAUGUUACUUAACAUCUUCUGUAACAGAAGUCAGUACUCCUGUUGCGGAGAAAGGAGUCAUACUUGUGAAGACUUUUAUGUCACUACUCUAAAGAUUUUGCUGUUGC
For the molecule B2, the Kd in the series with HuR worked out at 81.3 nM; with beta-catenin FL [1], 158 nM.

B3: COX-2 3'-UTR U-4 (ssRNA)
RNA: UGUAACAGAAGUCAGUACUCCUGUUGCGGAGAAAGGAGUCAUACUUGUGAAGACUUUUAUGUCACUACUCUAAAGAUUUUGCUGUUGCUGUUAAGUUUGG
Turning to B3, the Kd with beta-catenin FL [2] is 131 nM; with HuR, 3510 nM.

B4: negative control NC RNA (ssRNA)
RNA: CAUAGCUCAUUAUACCCUCCUGGGCUCAAGCAAUCCCCCUAACUCUGCCUCCCCAGUAGCUAGGACCACAGGCAUACACC
For the molecule B4, in the series with beta-catenin FL [3], the binding result is recorded as “no binding”.

B5: COX-2 3'-UTR U-3 (ssRNA)
RNA: GCGGAGAAAGGAGUCAUACUUGUGAAGACUUUUAUGUCACUACUCUAAAGAUUUUGCUGUUGCUGUUAAGUUUGGAAAACAGUUUUUAUUCUGUUUUAUAAACCAGAGAGAAAUGAGUUUUGACGUCUUUUUACUUGAAUUUCAACUUAUAUUAUAAGGACGAAAGUAAAGAUGUUUGAAUACUUAAACACUAUCACAAGAUGCCAA
For the molecule B5, the Kd with beta-catenin FL [1] stood at 2600 nM.

In general, Kd refers to the concentration at which binding is half-saturated. Higher therefore signals a looser complex.

Source of the values: publication PMC3413138.
